Assay results from the supplement of paper PMC9170038.

System: MS2 coat protein
Test: apparent KD of MS2 coat protein; designed switch direction (-1 OFF switch, 1 ON switch): -1; higher = weaker reporter binding
In short: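 RNA switches sharing common flanks were transcribed by stalled E. coli RNA polymerase on Illumina chips. A doubling series of SNAP-549-labelled MS2 coat protein, from 0.7 or 1.5 nM to 3 µM, was applied in Tris-HCl pH 7.5 buffer with KCl, MgCl2, BSA, DTT, tRNA and Tween-20. Each step lasted 0.8–1.5 h at the bottom of the series and 10–20 min at the top. Normalised cluster fluorescence was curve-fitted, giving apparent KD as the per-design median over clusters.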

[1] = Eterna round: R95, input ligand: microRNA oligo, concentration not stated
[2] = input ligand: microRNA oligo, concentration not stated
[3] = Eterna round: R95, input ligand: FMN 200 uM
[4] = Eterna round: R95, input ligand: none

Row | Sequence | apparent KD of MS2 coat protein (input ligand: FMN 200 uM) | apparent KD of MS2 coat protein (input ligand: none) | apparent KD of MS2 coat protein [1] | other results
1 | CCAGAGGAAGGAUAUUAAGGCGUAUACAUGAGGAUCACCCAUGUCCUACACUUCGCACUAUAAGAAGGUUCCCGGA [Eternabot (Original) Solution 39] (Eterna round: R97, puzzle: Exclusion 5) | 0.193 µM | 0.121 µM | – | –
2 | CCAGCAAGUUCAGCUCGUCACAUGAGGAUCACCCAUGUUAAGUAAUCCUUCUCUUCUAGGUAGCGCCGGAGAGAGGG [Eternabot (Original) Solution 16] (Eterna round: R97, puzzle: Sensor, turn-off variant 1) | 0.0326 µM | 0.0433 µM | – | –
3 | CCAGCGUAUGUAAGGAUAUGCUGGUCGAAAGAUCAGCAGAAGGUACAUGAGGAUCACCCAUGUGUAAUCGUUGG [Mod of JL 5 - Jieux - Brourd's mod of Exclusion 4] (Eterna round: R97, puzzle: Brourd's mod of Exclusion 4) | 0.0527 µM | 0.0189 µM | – | –
4 | CCAUACCGAGGAUAUACAUGAGGAUCACCCAUGUCAAAACCACGUGUACGGCGGUCUUGUAGAAGGCGGAAAUA [Onbisodi] (puzzle: Exclusion 3) | – | – | 0.00999 µM | –
5 | CCAUGGGAGCGAGGAUAUAGCCCAUGGGAAGAACUAGAAGGCGCAGACAUGAGGAUCACCCAUGUGUUCAUGAGGAGGUGGACA (Eterna round: R96, puzzle: Exclusion NG 1) | 0.153 µM | 0.121 µM | – | apparent KD of MS2 coat protein [2]: 0.0826 µM
6 | CCAUGGGAGCGAGGAUAUAGCCCAUGGGAAGAGCUAGAAGGCGCUGACAUGAGGAUCACCCAUGUGUUCAUGAGGAGGUGGACA (Eterna round: R96, puzzle: Exclusion NG 1) | 0.292 µM | 0.173 µM | – | apparent KD of MS2 coat protein [2]: 0.128 µM
7 | CCAUGUUAGCAGGAUAUGCAAUAAAUCUUUUAAGCAGAAGGGCUUACAUGAGGAUCACCCAUGUAUAAUUUCAA [JR_E6_Sub080] (puzzle: Exclusion 6) | – | – | 0.0426 µM | –
8 | CCCACAAGCUUUUUGCUCGACAUGAGGAUCACCCAUGUUGAAUGGGUUAUAUGUGUGUGAUACAUAUAUAUGUACCU [-24.7, -47.9 kcal, A 26%] (Eterna round: R97, puzzle: Sensor, turn-off variant 1) | 0.0232 µM | 0.0235 µM | – | –
9 | CCCAUGCCCGAGGAUAUGCUGUACAAAAGUACUGCAGAAGGCGGGACAUGAGGAUCACCCAUGUGGCGAAAGCC [Omei Ex G7] (Eterna round: R97, puzzle: Exclusion 6) | 0.0115 µM | 0.124 µM | – | –
10 | CCCGGAUCAACUCCCGGGAACAACAUGAGGAUCACCCAUGUCUAGGAUAUCCACCAGUCAAUAAAGGAGAAGGAGACGGUGGUU [Raesessoqu] (Eterna round: R96, puzzle: Exclusion NG 3) | 0.0325 µM | 0.0305 µM | – | apparent KD of MS2 coat protein [2]: 0.0233 µM
11 | CCCUCACAUGAGGAUCACCCAUGUCAGGAUAUCUAGUCAGACAGUGUAGCACUAAUGAAGAGAAGGGACGUAUG [Edtetidi] (puzzle: Exclusion 1) | – | – | 0.0239 µM | –
12 | CCCUGACAUGAGGAUCACCCAUGUUAGGAUAUAACAUUUGACACGACAGUGUGAAGUGUUAGAAGGGAUAUGGG [-28.4, -26.7 kcal, A 31%] (Eterna round: R97, puzzle: Exclusion 1) | 0.0362 µM | 0.0221 µM | – | –
13 | CCGAAUAUGUAGGAUAUCGUAUCGGAAACGAUACGAGAAGGGCAAACAUGAGGAUCACCCAUGUUCCUUAACGG [Fiskers Ex 6 - 13] (puzzle: Exclusion 6) | – | – | 0.0151 µM | apparent KD of MS2 coat protein [3]: 0.0163 µM; apparent KD of MS2 coat protein [4]: 0.0142 µM
14 | CCGACAAGCUGCUAAGGAUACAUGAGGAUCACCCAUGUCGGUAUCCGAGAGGUAUUGAAGUCAACCAUCGCUCGUCU [Eternabot (Original) Solution 49] (Eterna round: R97, puzzle: Sensor, turn-off variant 1) | 0.167 µM | 0.188 µM | – | –
15 | CCGACAUGAGGAUAUCCAUCUGGAUCAGACUAGAUCCUGAUGGAGAAGGUACAUGAGGAUCACCCAUGUUACGG [Eli 4x 4.46] (Eterna round: R97, puzzle: Exclusion 4) | 0.372 µM | 0.33 µM | – | –
16 | CCGACCUGAGGAUAUAGCGUCCGCGACAUGAGGAUCACCCAUGUCCCUCAUAACGUAAAACUAGAAGGUAGAGUCG [Eternabot (L1) Solution 75] (Eterna round: R97, puzzle: Exclusion 5) | 0.0298 µM | 0.0257 µM | – | –
17 | CCGAGGUGGCGGUCCUAUGACAUGAGGAUCACCCAUGUACCUCGCCACGAGCUUUUUGCUCACCUUAUAAUUCUCGG [Ragequen] (puzzle: Sensor v3, turn-off variant 1) | – | – | 0.0176 µM | apparent KD of MS2 coat protein [3]: 0.0187 µM; apparent KD of MS2 coat protein [4]: 0.0194 µM

Row | Sequence | apparent KD of MS2 coat protein (input ligand: FMN 200 uM) | apparent KD of MS2 coat protein (input ligand: none) | apparent KD of MS2 coat protein [1] | other results
18 | CCGCAAAUGCAGGAUAUCGUAUCGGAAACGAUACGAGAAGGGUAAACAUGAGGAUCACCCAUGUUCCUUAACGG [Mat - Exclusion 6 - Eli Mod - D98] (Eterna round: R96, puzzle: Exclusion 6) | 0.0155 µM | 0.0181 µM | – | apparent KD of MS2 coat protein [2]: 0.0131 µM
19 | CCGCAAAUGCAGGAUAUCGUAUCGGAAACGAUACGAGAAGGGUAAACAUGAGGAUCACCCAUGUUCCUUAACGG [Mat - Exclusion 6 - Eli Mod - D98] (puzzle: Exclusion 6) | – | – | 0.0163 µM | –
20 | CCGCAAAUGUAGGAUAUCGUAUCGGAUACGAUACGAGAAGGGCAUACAUGAGGAUCACCCAUGUGUCCUAGCGG [Fiskers Ex 6 - 44] (puzzle: Exclusion 6) | – | – | 0.012 µM | –
21 | CCGCCACAUGAGGAUCACCCAUGUCAGGAUAUCUAUCAUAGCAUCGAAAGAUGCGGGUAGAGAAGGGACUAUCC [ChP Ext 10-04-2015 #6] (puzzle: Exclusion 1) | – | – | 0.0281 µM | –
22 | CCGCCAUGAGGAUAUUAGUAGUAGUCAGAAAAGACUAUUACUGAGAAGGCACAUGAGGAUCACCCAUGUAGCGG [Mat - Exclusion 4 - Eli Mod - D50] (Eterna round: R97, puzzle: Exclusion 4) | 0.0188 µM | 0.041 µM | – | –
23 | CCGCUGUGAGGAUAUUAGUAGUAGUCAGAAUAGACUAUUACUGAGAAGGCACAUGAGGAUCACCCAUGUAGCGG [Eli x4 4.25] (Eterna round: R97, puzzle: Exclusion 4) | 0.0248 µM | 0.0289 µM | – | –
24 | CCGGAAAGGGAGGAUAUAGGAGUCGAUAGACACCUAGAAGGUCUGACAUGAGGAUCACCCAUGUGUCCUACCGG [Fiskers Ex 6 - 90] (puzzle: Exclusion 6) | – | – | 0.0199 µM | apparent KD of MS2 coat protein [3]: 0.0203 µM; apparent KD of MS2 coat protein [4]: 0.0198 µM
25 | CCGGAAAUAGAGGAUAUCGUAUCGGAUACGAUACGAGAAGGCUGUACAUGAGGAUCACCCAUGUGUCCUACCGG [Fiskers Ex 6 - 58] (puzzle: Exclusion 6) | – | – | 0.0113 µM | –
26 | CCGGAAAUGCAGGAUAUCGUAUCGGAUACGAUACGAGAAGGGUAGACAUGAGGAUCACCCAUGUGUCCUACCGG [Fiskers Ex 6 - 50] (puzzle: Exclusion 6) | – | – | 0.0786 µM | apparent KD of MS2 coat protein [3]: 0.11 µM; apparent KD of MS2 coat protein [4]: 0.101 µM
27 | CCGGAACAUGAGGAUCACCCAUGUCAGGAUAUUCCAAAAUCGUCGAUAGACGAUAACAGGAGAAGGGACACCGG [Mat - Exclusion 1 - Eli Mod - D30] (Eterna round: R97, puzzle: Exclusion 1) | 0.0204 µM | 0.0157 µM | – | –
28 | CCGGAACAUGAGGAUCACCCAUGUGAGGAUAUCGUACGUUCGUCGAAAGACGAUCGUACGAGAAGGCAUGCCGG [Eli x1 4.34] (Eterna round: R97, puzzle: Exclusion 1) | 0.0196 µM | 0.0277 µM | – | –
29 | CCGGAAUUACAGGAUAUAGGAGUCGAUAGACACCUAGAAGGGUAGACAUGAGGAUCACCCAUGUGUCCUACCGG [Fiskers Ex 6 - 85] (puzzle: Exclusion 6) | – | – | 0.176 µM | –
30 | CCGGAUAUGCAGGAUAUCGUAUCGGAAACGAUACGAGAAGGGUAUACAUGAGGAUCACCCAUGUGUCCUACCGG [Fiskers Ex 6 - 20] (puzzle: Exclusion 6) | – | – | 0.0238 µM | –
31 | CCGGCAUAGGAGGAUAUAGGAGUCGAUAGACACCUAGAAGGCCUGACAUGAGGAUCACCCAUGUGUCCUACCGG [Fiskers Ex 6 - 97] (puzzle: Exclusion 6) | – | – | 0.0125 µM | –
32 | CCGGCUGCUGUGAGGAUAUGCCUGUGGGCCCGCGGGCAGAAGGCACAUGAGGAUCACCCAUGUCCUGCGGUCCC [salish99_bmx4_r4_117] (Eterna round: R97, puzzle: Brourd's mod of Exclusion 4) | 0.035 µM | 0.0335 µM | – | –
33 | CCGGCUUAGGAGGAUAUAGGAGUCGAUAGACACCUAGAAGGCCUAACAUGAGGAUCACCCAUGUGACCUACCGG [Mod of Eli 28 - Jieux - Exclusion 6] (Eterna round: R97, puzzle: Exclusion 6) | 0.132 µM | 0.0286 µM | – | –
